# Assay results published in patent US20260167699A1 (Chugai, published 2026).
# B1: GpH7-A5/GpH7-B3 variant P271_20W/GpL16-k0 (antibody, human IgG1, kappa)
# heavy 1: not shown
# heavy 2: not shown
# light: DIVMTQSPLSLPVTPGEPASISCQASESLVHSNRNTYLHWYLQKPGQSPQLLIYKVSNRFSGVPDRFSGSGSGTDFTLKISRVEAEDVGVYYCSQNTHVPPTFGQGTKVEIERTVAAPSVFIFPPSDEQLKSGTASVVCLLNNFYPREAKVQWKVDNALQSGNSQESVTEQDSKDSTYSLSSTLTLSKADYEKHKVYACEVTHQGLSSPVTKSFNRGEC
# notes: copies: 1 + 1 + 2
# B2: GpH7-A5/GpH7-B3 variant P331_13S/GpL16-k0 (antibody, human IgG1, kappa)
# heavy 1: not shown
# heavy 2: not shown
# light: DIVMTQSPLSLPVTPGEPASISCQASESLVHSNRNTYLHWYLQKPGQSPQLLIYKVSNRFSGVPDRFSGSGSGTDFTLKISRVEAEDVGVYYCSQNTHVPPTFGQGTKVEIERTVAAPSVFIFPPSDEQLKSGTASVVCLLNNFYPREAKVQWKVDNALQSGNSQESVTEQDSKDSTYSLSSTLTLSKADYEKHKVYACEVTHQGLSSPVTKSFNRGEC
# notes: copies: 1 + 1 + 2
# B3: GpH7-A5/GpH7-B3 variant P331_15Y/GpL16-k0 (antibody, human IgG1, kappa)
# heavy 1: not shown
# heavy 2: not shown
# light: DIVMTQSPLSLPVTPGEPASISCQASESLVHSNRNTYLHWYLQKPGQSPQLLIYKVSNRFSGVPDRFSGSGSGTDFTLKISRVEAEDVGVYYCSQNTHVPPTFGQGTKVEIERTVAAPSVFIFPPSDEQLKSGTASVVCLLNNFYPREAKVQWKVDNALQSGNSQESVTEQDSKDSTYSLSSTLTLSKADYEKHKVYACEVTHQGLSSPVTKSFNRGEC
# notes: copies: 1 + 1 + 2
# B4: GpH7-A5/GpH7-B3 variant P331_08L/GpL16-k0 (antibody, human IgG1, kappa)
# heavy 1: not shown
# heavy 2: not shown
# light: DIVMTQSPLSLPVTPGEPASISCQASESLVHSNRNTYLHWYLQKPGQSPQLLIYKVSNRFSGVPDRFSGSGSGTDFTLKISRVEAEDVGVYYCSQNTHVPPTFGQGTKVEIERTVAAPSVFIFPPSDEQLKSGTASVVCLLNNFYPREAKVQWKVDNALQSGNSQESVTEQDSKDSTYSLSSTLTLSKADYEKHKVYACEVTHQGLSSPVTKSFNRGEC
# notes: copies: 1 + 1 + 2
# B5: GpH7-A5/GpH7-B3 variant P331_07I/GpL16-k0 (antibody, human IgG1, kappa)
# heavy 1: not shown
# heavy 2: not shown
# light: DIVMTQSPLSLPVTPGEPASISCQASESLVHSNRNTYLHWYLQKPGQSPQLLIYKVSNRFSGVPDRFSGSGSGTDFTLKISRVEAEDVGVYYCSQNTHVPPTFGQGTKVEIERTVAAPSVFIFPPSDEQLKSGTASVVCLLNNFYPREAKVQWKVDNALQSGNSQESVTEQDSKDSTYSLSSTLTLSKADYEKHKVYACEVTHQGLSSPVTKSFNRGEC
# notes: copies: 1 + 1 + 2
# B6: GpH7-A5/GpH7-B3 variant P331_10E/GpL16-k0 (antibody, human IgG1, kappa)
# heavy 1: not shown
# heavy 2: not shown
# light: DIVMTQSPLSLPVTPGEPASISCQASESLVHSNRNTYLHWYLQKPGQSPQLLIYKVSNRFSGVPDRFSGSGSGTDFTLKISRVEAEDVGVYYCSQNTHVPPTFGQGTKVEIERTVAAPSVFIFPPSDEQLKSGTASVVCLLNNFYPREAKVQWKVDNALQSGNSQESVTEQDSKDSTYSLSSTLTLSKADYEKHKVYACEVTHQGLSSPVTKSFNRGEC
# notes: copies: 1 + 1 + 2
# B7: GpH7-A5/GpH7-B3 variant P331_04F/GpL16-k0 (antibody, human IgG1, kappa)
# heavy 1: not shown
# heavy 2: not shown
# light: DIVMTQSPLSLPVTPGEPASISCQASESLVHSNRNTYLHWYLQKPGQSPQLLIYKVSNRFSGVPDRFSGSGSGTDFTLKISRVEAEDVGVYYCSQNTHVPPTFGQGTKVEIERTVAAPSVFIFPPSDEQLKSGTASVVCLLNNFYPREAKVQWKVDNALQSGNSQESVTEQDSKDSTYSLSSTLTLSKADYEKHKVYACEVTHQGLSSPVTKSFNRGEC
# notes: copies: 1 + 1 + 2
# B8: GpH7-A5/GpH7-B3 variant P331_12R/GpL16-k0 (antibody, human IgG1, kappa)
# heavy 1: not shown
# heavy 2: not shown
# light: DIVMTQSPLSLPVTPGEPASISCQASESLVHSNRNTYLHWYLQKPGQSPQLLIYKVSNRFSGVPDRFSGSGSGTDFTLKISRVEAEDVGVYYCSQNTHVPPTFGQGTKVEIERTVAAPSVFIFPPSDEQLKSGTASVVCLLNNFYPREAKVQWKVDNALQSGNSQESVTEQDSKDSTYSLSSTLTLSKADYEKHKVYACEVTHQGLSSPVTKSFNRGEC
# notes: copies: 1 + 1 + 2
# B9: GpH7-A5/GpH7-B3 variant P331_09D/GpL16-k0 (antibody, human IgG1, kappa)
# heavy 1: not shown
# heavy 2: not shown
# light: DIVMTQSPLSLPVTPGEPASISCQASESLVHSNRNTYLHWYLQKPGQSPQLLIYKVSNRFSGVPDRFSGSGSGTDFTLKISRVEAEDVGVYYCSQNTHVPPTFGQGTKVEIERTVAAPSVFIFPPSDEQLKSGTASVVCLLNNFYPREAKVQWKVDNALQSGNSQESVTEQDSKDSTYSLSSTLTLSKADYEKHKVYACEVTHQGLSSPVTKSFNRGEC
# notes: copies: 1 + 1 + 2
# B10: GpH7-A5/GpH7-B3 variant P331_14T/GpL16-k0 (antibody, human IgG1, kappa)
# heavy 1: not shown
# heavy 2: not shown
# light: DIVMTQSPLSLPVTPGEPASISCQASESLVHSNRNTYLHWYLQKPGQSPQLLIYKVSNRFSGVPDRFSGSGSGTDFTLKISRVEAEDVGVYYCSQNTHVPPTFGQGTKVEIERTVAAPSVFIFPPSDEQLKSGTASVVCLLNNFYPREAKVQWKVDNALQSGNSQESVTEQDSKDSTYSLSSTLTLSKADYEKHKVYACEVTHQGLSSPVTKSFNRGEC
# notes: copies: 1 + 1 + 2
# B11: GpH7-A5/GpH7-B3 variant P331_19Q/GpL16-k0 (antibody, human IgG1, kappa)
# heavy 1: not shown
# heavy 2: not shown
# light: DIVMTQSPLSLPVTPGEPASISCQASESLVHSNRNTYLHWYLQKPGQSPQLLIYKVSNRFSGVPDRFSGSGSGTDFTLKISRVEAEDVGVYYCSQNTHVPPTFGQGTKVEIERTVAAPSVFIFPPSDEQLKSGTASVVCLLNNFYPREAKVQWKVDNALQSGNSQESVTEQDSKDSTYSLSSTLTLSKADYEKHKVYACEVTHQGLSSPVTKSFNRGEC
# notes: copies: 1 + 1 + 2
# Target: T1, FcγRIIIa (human, UniProt P08637 17-208)
# T1 construct: extracellular domain; also called 3a; FcγRIIIa extracellular domain
# T1 sequence (P08637 other isoform, or with tags, fused parts or gaps): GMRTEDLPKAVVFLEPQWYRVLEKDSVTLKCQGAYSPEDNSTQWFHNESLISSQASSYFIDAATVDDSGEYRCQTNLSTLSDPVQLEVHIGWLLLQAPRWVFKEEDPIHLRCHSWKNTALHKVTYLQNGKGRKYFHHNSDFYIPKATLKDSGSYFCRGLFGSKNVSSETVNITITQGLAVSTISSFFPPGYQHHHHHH
# Assay: SPR (Biacore);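 further: antibody variants captured on an SPR sensor chip, with FcγRIIIa passed over as analyte in HBS-EP+ buffer at 25 °C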
row,Binder,He/Con 3a
1,B1,77.8 % of GpH7-A5/GpH7-B3/GpL16-k0
2,B2,80.9 % of GpH7-A5/GpH7-B3/GpL16-k0
3,B3,74.9 % of GpH7-A5/GpH7-B3/GpL16-k0
4,B4,66 % of GpH7-A5/GpH7-B3/GpL16-k0
5,B5,60.4 % of GpH7-A5/GpH7-B3/GpL16-k0
6,B6,68.7 % of GpH7-A5/GpH7-B3/GpL16-k0
7,B7,70.7 % of GpH7-A5/GpH7-B3/GpL16-k0
8,B8,64.8 % of GpH7-A5/GpH7-B3/GpL16-k0
9,B9,71.6 % of GpH7-A5/GpH7-B3/GpL16-k0
10,B10,67.8 % of GpH7-A5/GpH7-B3/GpL16-k0
11,B11,73.9 % of GpH7-A5/GpH7-B3/GpL16-k0
